The values that follow come from patent publication US20230203169 (published 2023).

One assay concerns the target FcγRIIIa 158F (human) (UniProt P08637). Nature of the assay: BLI.
Assay [1] concerns the target T1, CD20 (human, UniProt P11836).
T1 chain: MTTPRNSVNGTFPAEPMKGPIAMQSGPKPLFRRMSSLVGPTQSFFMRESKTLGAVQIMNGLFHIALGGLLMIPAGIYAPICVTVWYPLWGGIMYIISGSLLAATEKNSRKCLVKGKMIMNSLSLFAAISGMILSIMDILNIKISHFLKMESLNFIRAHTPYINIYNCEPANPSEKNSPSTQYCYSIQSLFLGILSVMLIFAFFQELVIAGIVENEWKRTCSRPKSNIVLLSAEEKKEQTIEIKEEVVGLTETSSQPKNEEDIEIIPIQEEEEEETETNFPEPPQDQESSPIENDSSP
Put plainly: FACS, Wil2-s cells, 4C.

Assay [2] deals with T1, CD20. Nature of the assay: FACS, Raji cells, 4C.
Assay [3] deals with T1, CD20. Nature of the assay: FACS, Wil2-s cells, 4C.
In assay [4] the target is T1, CD20. Nature of the assay: FACS, Raji cells, 4C.

FcγRIIIa 158F (human), sequence (P08637 17-208): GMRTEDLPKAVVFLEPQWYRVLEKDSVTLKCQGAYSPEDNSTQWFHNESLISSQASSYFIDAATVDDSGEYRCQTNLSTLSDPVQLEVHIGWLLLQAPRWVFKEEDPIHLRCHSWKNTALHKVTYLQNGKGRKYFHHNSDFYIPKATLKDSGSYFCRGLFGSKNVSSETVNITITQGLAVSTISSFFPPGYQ

In the assay with FcγRIIIa 158F (human), Obinutuzumab (Gazyva) yielded a dissociation constant (Kd) of 0.226 µM.

B1: Rituximab (antibody)
chain 1: QVQLQQPGAELVKPGASVKMSCKASGYTFTSYNMHWVKQTPGRGLEWIGAIYPGNGDTSYNQKFKGKATLTADKSSSTAYMQLSSLTSEDSAVYYCARSTYYGGDWYFNVWGAGTTVTVSA
chain 2: QIVLSQSPAILSASPGEKVTMTCRASSSVSYIHWFQQKPGSSPKPWIYATSNLASGVPVRFSGSGSGTSYSLTISRVEAEDAATYYCQQWTSNPPTFGGGTKLEIK
On to B1, for which the results for the Kd in the assay with CD20 [1] and with CD20 [4] were 0.016 µM and 0.0127 µM, respectively. Besides, the IC50 stood at 0.0133 µM with CD20 [2] and 0.0168 µM in the assay with CD20 [3].
